Experimental data from US8834890B2, “Siderophore conjugate immunogenic compositions and vaccines” (University of Florida Research Foundation, Inc., priority 2009, dated 2014).

B1: OVA: unconjugated ovalbumin, control in the competitive binding ELISA (protein, UniProt P01012 2-386, looked up)
Ovalbumin: GSIGAASMEFCFDVFKELKVHHANENIFYCPIAIMSALAMVYLGAKDSTRTQINKVVRFDKLPGFGDSIEAQCGTSVNVHSSLRDILNQITKPNDVYSFSLASRLYAEERYPILPEYLQCVKELYRGGLEPINFQTAADQARELINSWVESQTNGIIRNVLQPSSVDSQTAMVLVNAIVFKGLWEKAFKDEDTQAMPFRVTEQESKPVQMMYQIGLFRVASMASEKMKILELPFASGTMSMLVLLPDEVSGLEQLESIINFEKLTEWTSSNVMEERKIKVYLPRMKMEEKYNLTSVLMAMGITDVFSSSANLSGISSAESLKISQAVHAAHAEINEAGREVVGSAEAGVDAASVSEEFRADHPFLFCIKHIATNAVLFFGRCVSP

Columns and labels:
[1] = Iron clearance in non-iron-overloaded, bile-duct cannulated rats; format: in vivo, Sprague-Dawley rats; conditions: 75 μmol/kg s.c.
Description: To support this idea, bile duct-cannulated rats were given vibriobactin (3) subcutaneously (s.c.) at a dose of 75 μmol/kg. The rodents' bile and urine were collected for 48 h to determine if vibriobactin sequestered and promoted the excretion of iron. The iron content of the bile and urine were determined using atomic absorption spectroscopy. This model has been used for many years to evaluate the efficiency with which iron chelators promote the excretion of iron from animals [Bergeron, R. J.; Streiff, R. R.; Creary, E. A.; Daniels, R. D., Jr.; King, W.; Luchetta, G.; Wiegand, J.; Moerker, T.; Peter, H. H. A Comparative Study of the Iron-Clearing Properties of Desferrithiocin Analogues with Desferrioxamine B in a Cebus Monkey Model. Blood 1993, 81, 2166-2173 and Bergeron, R. J.; Streiff, R. R.; Wiegand, J.; Vinson, J. R. T.; Luchetta, G.; Evans, K. M.; Peter, H.; Jenny, H.-B. A Comparative Evaluation of Iron Clearance Models. […]
Four rats were subjected to bile duct-cannulation as previously described. […] The iron content of the bile and urine were assessed by atomic absorption spectroscopy. Iron clearing efficiency was calculated as set forth elsewhere [Bergeron, R. J.; Wiegand, J.; McManis, J. S.; McCosar, B. H.; Weimar, W. R.; Brittenham, G. M.; Smith, R. E. Effects of C-4 Stereochemistry and C-4′ Hydroxylation on the Iron Clearing Efficiency and Toxicity of Desferrithiocin Analogues. […]

[2] = test system: BSA-VIB antigen; experiment: Competitive binding ELISA of polyclonal serum from immunized mice
Description: In the competitive binding ELISA, sera from immunized mice or non-immunized mice were first incubated with potential antigens f-g, or with OVA-VIB, at antigen concentrations ranging from 0-250 μg/mL. If an antigen is an effective competitor, it will bind to the antibody during this initial incubation, leaving less antibody available to bind to a second antigen coated on the ELISA plate. This “competition” will be reflected in lower p-nitrophenol optical density values.
Competitive binding ELISAs were performed on 1) serum from immunized mice that contained polyclonal antibodies, and 2) purified mAb derived from the cloning of 5A6-2D5 and 2F10-1A9. Medium was used as a negative control, while unconjugated OVA (10 μg/mL, 50 μL/well) served as a […] for the competitive binding ELISA of the polyclonal serum (Table 2) and purified mAb (Table 6). Two types of plates were utilized: a conical bottom polypropylene plate was used for the incubation of the antibody-antigen mixture, whereas a 96-well MAXISORP plate (a high protein-binding capacity polystyrene multi-well ELISA plate) was used for the ELISA.
In brief, the polypropylene incubation plate was blocked with 300 μL of blocking buffer (1% BSA in PBS with 0.02% azide) and was allowed to incubate overnight at 4° C. The following day, the blocking buffer was removed (flicked) from the plate, and the plate was blotted on a paper towel. A 96-well ELISA plate was coated with the BSA-VIB antigen (10 μg/mL, 50 μL/well) that had been diluted in PBS with 0.02% azide. After incubating overnight at 4° C., the plate was washed 4 times (300 μL/wash) as described above, blocked with 300 μL of blocking buffer for 1 h, and washed again.
The OVA-VIB antigen was diluted in blocking buffer in micro centrifuge tubes at antigen concentrations ranging from 0-250 μg/mL. The diluted antigens (50 μL/well) were transferred from the micro centrifuge tubes to the polypropylene incubation plate that had been blocked and washed. Fifty microliters of the diluted polyclonal mouse serum (1:10,000 dilution) or mAb (0.11 μg protein/mL) were added to the incubation plate wells containing the diluted OVA-VIB antigen. The polypropylene plate was then incubated on a rocking platform for 2 h at room temperature, allowing time for the antigen-antibody complexes to form.
A portion of the antigen/antibody mixture (50 μL) was transferred from the polypropylene incubation plate to the BSA-VIB-coated ELISA plate that had been blocked and washed. The ELISA plate was incubated with gentle agitation for 1 h at room temperature and was washed 4 times with the EWB. […] The ELISA plate was allowed to incubate with gentle agitation for 1 h at room temperature and was read at 405 nm, tracking the OD of the yellow water-soluble product, p-nitrophenol. […]

[3] = test system: BSA-VIB antigen; experiment: Competitive binding ELISA of purified monoclonal antibodies
Description: Competitive binding ELISA studies using the purified mAb were conducted. The mAb were first incubated with varying concentrations of the OVA-VIB antigen, from 0-250 μg/mL, prior to being transferred to an ELISA plate that had been coated with the BSA-VIB antigen.
In brief, the polypropylene incubation plate was blocked with 300 μL of blocking buffer (1% BSA in PBS with 0.02% azide) and was allowed to incubate overnight at 4° C. The following day, the blocking buffer was removed (flicked) from the plate, and the plate was blotted on a paper towel. A 96-well ELISA plate was coated with the BSA-VIB antigen (10 μg/mL, 50 μL/well) that had been diluted in PBS with 0.02% azide. After incubating overnight at 4° C., the plate was washed 4 times (300 μL/wash) as described above, blocked with 300 μL of blocking buffer for 1 h, and washed again. […]

[4] = against the BSA-VIB antigen, 10 μg/mL

Chain of BSA-VIB antigen (P02769 25-607): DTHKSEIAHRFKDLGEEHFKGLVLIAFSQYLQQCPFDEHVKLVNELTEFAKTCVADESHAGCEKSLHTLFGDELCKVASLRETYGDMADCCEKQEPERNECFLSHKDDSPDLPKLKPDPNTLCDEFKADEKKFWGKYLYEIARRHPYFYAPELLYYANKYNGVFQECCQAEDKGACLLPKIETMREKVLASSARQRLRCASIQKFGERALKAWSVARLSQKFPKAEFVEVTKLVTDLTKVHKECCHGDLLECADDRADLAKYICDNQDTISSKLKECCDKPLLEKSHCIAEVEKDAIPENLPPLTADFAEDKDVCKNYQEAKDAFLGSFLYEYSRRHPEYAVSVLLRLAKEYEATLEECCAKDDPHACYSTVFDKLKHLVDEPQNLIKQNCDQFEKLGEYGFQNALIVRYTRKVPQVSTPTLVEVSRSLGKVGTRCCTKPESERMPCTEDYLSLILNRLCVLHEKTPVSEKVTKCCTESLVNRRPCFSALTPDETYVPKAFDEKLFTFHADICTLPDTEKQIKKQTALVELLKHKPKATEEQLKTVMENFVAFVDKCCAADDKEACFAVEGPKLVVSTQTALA

Row | Molecule | iron sequestration in vivo (in words) [1] | iron clearing efficiency ([1]; bile and urine collected 48 h) | BSA-VIB Antigen: Optical Density at 405 nm ([2]; M1 serum 1:10,000 incubated with unconjugated OVA 10 μg/mL) | BSA-VIB Antigen: Optical Density at 405 nm ([2]; M2 serum 1:10,000 incubated with unconjugated OVA 10 μg/mL) | optical density of serum incubated with OVA greater than serum first incubated with OVA-VIB at the same concentration [2, 4] | effectiveness as competitor (in words) ([2]; sera from immunized mice, antigen 0-250 μg/mL) | optical density of mAb incubated with OVA greater than mAb first incubated with OVA-VIB at the same concentration [3, 4] | effectiveness as competitor (in words) ([3]; purified mAb, antigen 0-250 μg/mL)
1 | CC1OC(c2cccc(O)c2O)=NC1C(=O)NCCCN(CCCNC(=O)c1cccc(O)c1O)C(=O)C1N=C(c2cccc(O)c2O)OC1C (centres unmarked) [Compound 3, vibriobactin] | found to sequester iron in vivo | 4.3±1.1% |  |  |  |  |  | 
2 | B1 |  |  | 1.152 | 1.655 | 92% | not an effective competitor | approximately 90% | not an effective competitor
